Assay results published in patent US20170218352.
Like-named read-outs stand apart in the source and are kept apart here.

Assays:
type IV collagen [1] = test system: type IV collagen
type I collagen [2] = test system: type I collagen
type II collagen [3] = test system: type II collagen
type V collagen [4] = test system: type V collagen
type III collagen [5] = test system: type III collagen
type VI collagen [6] = test system: type VI collagen
[7] = test system: N-(3[2-furyl]acryloyl)-Leu-Gly-Pro-Ala
[8] = test system: fluorescently labeled type I collagen (FITC-collagen)
[9] = biological target: fluorescently labeled type I collagen (FITC-collagen); remark: listed apart in the source
type I collagen [10] = biological target: type I collagen; remark: listed apart in the source
type IV collagen [11] = biological target: type IV collagen; remark: listed apart in the source
type VI collagen [12] = biological target: type VI collagen; remark: listed apart in the source
type III collagen [13] = biological target: type III collagen; remark: listed apart in the source
type V collagen [14] = biological target: type V collagen; remark: listed apart in the source
[15] = biological target: T1, N-(3[2-furyl]acryloyl)-Leu-Gly-Pro-Ala
T1 chain: LGPA

type II collagen [16] = biological target: type II collagen; remark: listed apart in the source

Question: Which results are given for “collagenase derived from Clostridium histolyticum (manufactured by Roche Applied Science, trade name "Liberase C/T")”?
Answer: disappearance of collagen bands on electrophoresis after incubation (type IV collagen [1]): the bands do not disappear when the liberase is used; disappearance of collagen bands on electrophoresis after incubation (type I collagen [2]): the recombinant 62 kDa collagenase seems to more rapidly digest the type I collagen than liberase; disappearance of collagen bands on electrophoresis after incubation (type II collagen [3]): This tendency was also similarly observed for the type II, type III, type IV, type V, and type VI collagens; disappearance of collagen bands on electrophoresis after incubation (type V collagen [4]): the bands do not disappear when the liberase is used; disappearance of collagen bands on electrophoresis after incubation (type III collagen [5]): This tendency was also similarly observed for the type II, type III, type IV, type V, and type VI collagens; disappearance of collagen bands on electrophoresis after incubation (type VI collagen [6]): the band does not disappear when the liberase is used; Maximum rate [7]: 0.2 mM/s; Michaelis constant [7]: 2.03 mM; Molecular activity [7]: 22.2 s⁻¹; Specific activity [7]: 2.6 U/mg; Maximum rate [8]: 0.00016 mM/s; Michaelis constant [8]: 0.0019 mM; Molecular activity [8]: 18.7 s⁻¹; Specific activity [8]: 1770 U/mg

B1: 74 kDa collagenase (Grimontia hollisae-derived collagenase lacking the prepro region) (protein)
chain: AVEQCDLSQFQTTSSNQLMAAIRQQGASCVNALFSADTGVQEAAFSSNHMYNVAQYTRTLAQQYAGGGSDELEALYLYLRAGYYAEFYNSNITFLSWVTPAVKGAVDAFVQNAHFYDNGDAHGKVLNEVIITMDSAGLQHAYLDVVTQWLTRWNAQYAEHWYMRNAVNGVFTLLFGGQWNNQYTSLIGEQTALVTALQAFALDRTKVNSPTEFMAANAARELGRLARYTDATIAPKVTEGLTAIFGQYPSYGDGDAIWLGAADTASYYADCSQFNICGFEDALRDAALNQTFICSDTIKIRSQDMSQAQHLAACDKMAYEESFFHTTLETGNQPVADDHNTQLQVNIFNSDTDYGKYAGPIFGIDTNNGGMYLEGNPANVGNIPNFIAYEASYANPDHFVWNLEHEYVHYLDGRFNMYGDFGTPTELVVWWSEGVAEYVSRVNDNPQAIATIQDGSTYTLAQVFDTTYDGFDVDRIYRWGYLAVRFMFERHPDEVQRMLSATRQGRWAEYKAIISGWANQYQSEFAQWTEALAKGDSGAGNGEGTGSGNEGGGESGGNTGLPENCAVLPKISDGRLALDEAACLADTASASDVLWFSIPAVSEYQTIAITAGNGTGDLTLEYSNLNWPDGTNVQASSANMGNSECIILEHQANYWGYLKVSGSFENAALLVEAGSNQCRQ
Question: How did the “specific activity (24 hours after the purification)” value [9] turn out when B1 was run?
Answer: 11,500 (U/mg)

Question: What about the “specific activity (immediately after the purification)” value [9] of the same molecule?
Answer: 18,000 (U/mg)

B2: recombinant 62 kDa collagenase (Grimontia hollisae-derived recombinant collagenase) (protein)
chain: AVEQCDLSQFQTTSSNQLMAAIRQQGASCVNALFSADTGVQEAAFSSNHMYNVAQYTRTLAQQYAGGGSDELEALYLYLRAGYYAEFYNSNITFLSWVTPAVKGAVDAFVQNAHFYDNGDAHGKVLNEVIITMDSAGLQHAYLDVVTQWLTRWNAQYAEHWYMRNAVNGVFTLLFGGQWNNQYTSLIGEQTALVTALQAFALDRTKVNSPTEFMAANAARELGRLARYTDATIAPKVTEGLTAIFGQYPSYGDGDAIWLGAADTASYYADCSQFNICGFEDALRDAALNQTFICSDTIKIRSQDMSQAQHLAACDKMAYEESFFHTTLETGNQPVADDHNTQLQVNIFNSDTDYGKYAGPIFGIDTNNGGMYLEGNPANVGNIPNFIAYEASYANPDHFVWNLEHEYVHYLDGRFNMYGDFGTPTELVVWWSEGVAEYVSRVNDNPQAIATIQDGSTYTLAQVFDTTYDGFDVDRIYRWGYLAVRFMFERHPDEVQRMLSATRQGRWAEYKAIISGWANQYQSEFAQWTEALAKGDSGAGNGEGTGSGNEGGGESGGNT
Question: Which “disappearance of collagen bands on electrophoresis after incubation” value (“disappearance of collagen bands” for short) (type I collagen [10]) does the source give for B2 here?
Answer: the recombinant 62 kDa collagenase seems to more rapidly digest the type I collagen than liberase

Question: What about the “disappearance of collagen bands” value (type IV collagen [11]) of the same molecule?
Answer: the band become weaker when the recombinant 62 kDa collagenase is used to react for three hours or five hours

Question: What about the Maximum rate [9] of the same molecule?
Answer: 0.00041 mM/s

Question: And the Michaelis constant [9]?
Answer: 0.0011 mM

Question: What about the Molecular activity [9] of the same molecule?
Answer: 25.1 s⁻¹

Question: What about the Specific activity [9] of the same molecule?
Answer: 5490 U/mg

Question: What about the “specific activity (from immediately after the purification to 24 hours)” value [9] of the same molecule?
Answer: 12,000 (U/mg)

Question: And the “disappearance of collagen bands” value (type VI collagen [12])?
Answer: the band become weaker when the recombinant 62 kDa collagenase is used to react for 72 hours

Question: What about the “disappearance of collagen bands” value (type III collagen [13]) of the same molecule?
Answer: This tendency was also similarly observed for the type II, type III, type IV, type V, and type VI collagens

Question: What about the “disappearance of collagen bands” value (type V collagen [14]) of the same molecule?
Answer: the band become weaker when the recombinant 62 kDa collagenase is used to react for three hours or five hours

Question: What about the Maximum rate [15] of the same molecule?
Answer: 0.6 mM/s

Question: And the Michaelis constant [15]?
Answer: 2.28 mM

Question: What about the Molecular activity [15] of the same molecule?
Answer: 37.5 s⁻¹

Question: What about the Specific activity [15] of the same molecule?
Answer: 9.39 U/mg

Question: What about the “disappearance of collagen bands” value (type II collagen [16]) of the same molecule?
Answer: This tendency was also similarly observed for the type II, type III, type IV, type V, and type VI collagens

B3: recombinant 60 kDa collagenase (Grimontia hollisae-derived recombinant collagenase) (protein)
chain: AVEQCDLSQFQTTSSNQLMAAIRQQGASCVNALFSADTGVQEAAFSSNHMYNVAQYTRTLAQQYAGGGSDELEALYLYLRAGYYAEFYNSNITFLSWVTPAVKGAVDAFVQNAHFYDNGDAHGKVLNEVIITMDSAGLQHAYLDVVTQWLTRWNAQYAEHWYMRNAVNGVFTLLFGGQWNNQYTSLIGEQTALVTALQAFALDRTKVNSPTEFMAANAARELGRLARYTDATIAPKVTEGLTAIFGQYPSYGDGDAIWLGAADTASYYADCSQFNICGFEDALRDAALNQTFICSDTIKIRSQDMSQAQHLAACDKMAYEESFFHTTLETGNQPVADDHNTQLQVNIFNSDTDYGKYAGPIFGIDTNNGGMYLEGNPANVGNIPNFIAYEASYANPDHFVWNLEHEYVHYLDGRFNMYGDFGTPTELVVWWSEGVAEYVSRVNDNPQAIATIQDGSTYTLAQVFDTTYDGFDVDRIYRWGYLAVRFMFERHPDEVQRMLSATRQGRWAEYKAIISGWANQYQSEFAQWTEALAKGDS
Question: With B3 as the molecule, how does the “specific activity (from immediately after the purification to 24 hours)” value [9] read?
Answer: 12,000 (U/mg)
